Assay results from US20220324970A1 (Janssen / Centocor, published 2022).

T1: hpIgR_D2-D3
T1 construct: HIS-tagged construct from HEK293 cells; also called human pIgR extracellular domain 2-domain 3 (D2-D3); hD2-D3
T1 HIS-tagged domain construct: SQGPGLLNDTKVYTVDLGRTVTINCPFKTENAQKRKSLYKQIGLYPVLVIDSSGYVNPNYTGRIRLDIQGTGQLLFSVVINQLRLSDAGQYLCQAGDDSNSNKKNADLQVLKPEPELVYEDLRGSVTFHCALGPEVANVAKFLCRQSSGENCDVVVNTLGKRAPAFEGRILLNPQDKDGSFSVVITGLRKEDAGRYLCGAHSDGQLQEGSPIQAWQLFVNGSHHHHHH

T2: mouse pIgR extracellular domain (ECD) (mouse, UniProt O70570 19-645)
T2 construct: The entry ends with a HHHHHH tag; also called mpIgR; mpIgR ectodomain
T2 sequence: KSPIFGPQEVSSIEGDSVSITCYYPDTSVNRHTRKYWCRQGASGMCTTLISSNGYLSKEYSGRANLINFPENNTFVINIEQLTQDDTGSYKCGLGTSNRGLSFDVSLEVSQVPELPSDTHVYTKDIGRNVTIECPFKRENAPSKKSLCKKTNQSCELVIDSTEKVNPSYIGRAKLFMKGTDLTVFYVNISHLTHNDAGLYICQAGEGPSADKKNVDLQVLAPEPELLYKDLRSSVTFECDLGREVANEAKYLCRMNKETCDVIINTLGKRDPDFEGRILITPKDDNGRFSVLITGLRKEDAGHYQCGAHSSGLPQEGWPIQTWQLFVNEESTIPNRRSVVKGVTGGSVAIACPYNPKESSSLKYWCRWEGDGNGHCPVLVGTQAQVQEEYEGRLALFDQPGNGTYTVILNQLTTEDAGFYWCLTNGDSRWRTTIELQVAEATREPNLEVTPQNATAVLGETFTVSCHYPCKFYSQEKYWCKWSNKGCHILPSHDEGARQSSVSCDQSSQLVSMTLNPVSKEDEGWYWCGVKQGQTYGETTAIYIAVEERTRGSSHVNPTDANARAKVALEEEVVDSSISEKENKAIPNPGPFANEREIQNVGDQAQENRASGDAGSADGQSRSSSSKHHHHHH

T3: human pIgR extracellular domain 4-domain 5 (D4-D5) (human, UniProt P01833 350-565)
T3 construct: HIS-tagged construct made in HEK293 cells; also called hpIgR domains 4-5
T3 chain: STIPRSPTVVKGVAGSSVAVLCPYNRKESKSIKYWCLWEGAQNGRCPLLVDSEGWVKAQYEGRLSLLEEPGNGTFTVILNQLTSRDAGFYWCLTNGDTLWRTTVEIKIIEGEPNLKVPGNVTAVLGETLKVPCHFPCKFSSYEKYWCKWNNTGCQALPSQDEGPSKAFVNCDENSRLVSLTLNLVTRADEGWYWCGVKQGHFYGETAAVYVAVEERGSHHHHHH


Experiments:
[1] = target: T4, human pIgR extracellular domain (ECD) (human, UniProt P01833 19-638); test: BLI; summary table, repeats Table 1
T4 construct: also called hpIgR ECD

[2] = target: T5, hpIgR domain-1 with teleost fish CDR3 (hD1 tCDR3) (human, UniProt P01833 19-127, limits assumed); test: BLI, relative to full-length hpIgR ECD
T5 construct: CDR-swapped hpIgR domain-1 mutant, HIS-tagged, made in HEK293 cells; not shown: HIS tag

[3] = target: T6, hpIgR domain-1 with teleost fish CDR1 (hD1 tCDR1) (human, UniProt P01833 19-127, limits assumed); test: BLI, relative to full-length hpIgR ECD
T6 construct: CDR-swapped hpIgR domain-1 mutant, HIS-tagged, made in HEK293 cells; not shown: HIS tag

[4] = target: T7, human pIgR extracellular domain 1 (D1) (human, UniProt P01833 19-127); test: BLI, relative to full-length hpIgR ECD
T7 construct: HIS-tagged construct made in HEK293 cells; also called hpIgR domain-1
Experimental: (§1) Bio-layer Interferometry was performed as follows. […] Data were collected with Octet Data Acquisition version 7.1.0.87 (ForteBio) and analyzed using Octet Data Analysis version 7.1 (ForteBio). To measure binding kinetics between VHH-mono-Fc molecules and HIS-tagged pIgR proteins, VHH-mono-Fc was immobilized on amine-reactive generation-2 (ARG2) biosensors according to manufacturer's instructions and increasing concentrations of pIgR proteins were exposed to sensor-immobilized VHH. In some cases, HIS-tagged pIgR proteins were immobilized on anti-HIS biosensors and exposed to increasing concentrations of VHH-mono-Fc molecules. Association and dissociation rates were measured by the shift in wavelength (nm). […] All reactions were performed at 25° C. in PBS.
(§2) (Full-length hpIgR ECD was purchased from R&D Systems.) The five constructs (D1-D2, D1, D1_tCDR1, D1_tCDR2, D1_tCDR3) were expressed and purified from HEK293 cells using immobilized metal ion affinity chromatography. Three hpIgR domain-1 CDR mutants (D1_tCDR1, D1_tCDR2, D1_tCDR3) contain respective teleost fish CDR on a hpIgR domain-1 framework. His-tagged pIgR constructs were immobilized on anti-HIS biosensors and binding of VHH-mono-Fc molecules to pIgR constructs were measured by bio-layer interferometry.

[5] = target: T4, human pIgR extracellular domain (ECD); test: BLI, relative to full-length hpIgR ECD
Experimental: as §1, §2

[6] = target: T8, human pIgR extracellular domain 1-domain 2 (D1-D2) (human, UniProt P01833 19-240); test: BLI, relative to full-length hpIgR ECD
T8 construct: HIS-tagged construct made in HEK293 cells
Experimental: as §1, §2

[7] = target: T4, human pIgR extracellular domain (ECD); test: BLI, HIS-tagged pIgR construct on anti-HIS biosensors; HIS-tagged hpIgR_ECD on anti-HIS biosensors, Table 3
Experimental: as §1, §2

[8] = target: T4, human pIgR extracellular domain (ECD); test: ECL (MSD), hpIgR-ECD coated, anti-VHH detection
[9] = target: T9, human pIgR, full-length, on cells (human, UniProt P01833 19-764); test: cell-based or functional assay
hpIgR_D2-D3 = target: T1, hpIgR_D2-D3; test: ECL (MSD) heat map, HIS-tagged construct captured via anti-HIS, anti-human-Fc detection
Experimental: (§3) The Electrochemiluminescence assay was performed as follows. A meso-scale discovery (MSD) platform was used for conducting epitope mapping and epitope burial studies. To test the binding of VHH-mono-Fc molecules to purified pIgR protein constructs, Streptavidin MSD plates were coated with a biotinylated anti-HIS antibody (2 μg/ml in PBS) for 1 hour at RT with 1000 rpm, washed 3× with PBT (PBS+0.1% Tween-20), incubated with blocking buffer for 1 hour at RT, incubated with His-tagged pIgR proteins (10 μg/ml in PBS) for 2 hours at RT with 1000 rpm, washed 3× with PBT, incubated with VHH-mono-Fc molecules (100 μg/ml in PBS) for 2 hours at RT with 1000 rpm, washed 3× with PBT, incubated with ruthenylated-anti-human-Fc antibody (2 μg/ml in PBS) for 1 hour at RT with 1000 rpm, washed 3× with PBT and read plates in 40 ul reading buffer using the MSD imager. ECLU values were plotted as a heatmap.

[10] = target: T9, human pIgR, full-length, on cells; test: flow cytometry on MDCK-hpIgR cells
[11] = target: T2, mouse pIgR extracellular domain (ECD); test: BLI, screen of the VHH clones generated from hpIgR antigen
[12] = target: T4, human pIgR extracellular domain (ECD); test: BLI, HIS-tagged pIgR construct on anti-HIS biosensors
Experimental: as §1, §2

[13] = target: T9, human pIgR, full-length, on cells; test: cell-based or functional assay; remark: listed apart in the source
[14] = target: T3, human pIgR extracellular domain …; test: ECL (MSD) heat map, HIS-tagged construct captured via anti-HIS, anti-human-Fc detection
Experimental: as §3

[15] = target: T4, human pIgR extracellular domain (ECD); test: BLI, screen of the VHH clones generated from mpIgR antigen
[16] = target: T2, mouse pIgR extracellular domain (ECD); test: as above
[17] = target: T4, human pIgR extracellular domain (ECD); test: BLI; summary table, repeats Table 1; summary Table 4

T9 sequence (P01833 19-764): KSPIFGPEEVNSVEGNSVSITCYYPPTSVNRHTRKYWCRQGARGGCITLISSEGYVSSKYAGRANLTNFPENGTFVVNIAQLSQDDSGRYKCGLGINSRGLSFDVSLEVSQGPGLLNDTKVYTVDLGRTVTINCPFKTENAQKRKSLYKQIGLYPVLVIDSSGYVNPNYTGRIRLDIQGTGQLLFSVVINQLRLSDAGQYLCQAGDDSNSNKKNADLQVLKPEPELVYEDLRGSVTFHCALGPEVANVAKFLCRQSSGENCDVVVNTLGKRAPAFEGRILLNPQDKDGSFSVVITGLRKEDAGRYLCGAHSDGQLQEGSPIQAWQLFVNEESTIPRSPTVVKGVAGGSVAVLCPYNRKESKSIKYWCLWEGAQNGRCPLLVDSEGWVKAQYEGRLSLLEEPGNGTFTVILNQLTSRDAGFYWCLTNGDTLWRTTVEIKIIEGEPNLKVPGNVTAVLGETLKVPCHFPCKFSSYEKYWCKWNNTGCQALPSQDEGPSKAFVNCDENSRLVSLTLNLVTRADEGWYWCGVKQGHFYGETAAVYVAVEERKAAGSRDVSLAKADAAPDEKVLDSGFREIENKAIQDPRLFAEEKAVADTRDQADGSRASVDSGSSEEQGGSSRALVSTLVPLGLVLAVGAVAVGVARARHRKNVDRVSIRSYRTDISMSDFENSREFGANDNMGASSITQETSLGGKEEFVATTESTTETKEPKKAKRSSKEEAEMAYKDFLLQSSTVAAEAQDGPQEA
T4 sequence (P01833 other isoform, or with tags, fused parts or gaps): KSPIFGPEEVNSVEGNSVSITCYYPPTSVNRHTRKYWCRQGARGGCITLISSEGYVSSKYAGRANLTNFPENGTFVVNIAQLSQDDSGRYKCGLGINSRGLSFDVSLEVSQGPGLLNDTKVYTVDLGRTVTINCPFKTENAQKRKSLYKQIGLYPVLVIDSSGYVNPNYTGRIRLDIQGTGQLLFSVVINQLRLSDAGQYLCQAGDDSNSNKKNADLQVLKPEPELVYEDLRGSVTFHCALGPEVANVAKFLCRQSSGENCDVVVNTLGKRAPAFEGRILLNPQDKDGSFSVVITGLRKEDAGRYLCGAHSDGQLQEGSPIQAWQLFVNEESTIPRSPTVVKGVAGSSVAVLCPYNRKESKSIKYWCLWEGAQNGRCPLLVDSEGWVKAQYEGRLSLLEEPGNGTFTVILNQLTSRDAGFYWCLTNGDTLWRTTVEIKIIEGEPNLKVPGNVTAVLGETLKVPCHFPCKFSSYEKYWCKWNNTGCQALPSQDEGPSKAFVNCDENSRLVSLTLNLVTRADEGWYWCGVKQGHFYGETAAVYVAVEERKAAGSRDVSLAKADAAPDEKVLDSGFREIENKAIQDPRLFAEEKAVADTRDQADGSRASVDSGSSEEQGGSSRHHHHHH
T5 sequence (P01833 other isoform, or with tags, fused parts or gaps limits assumed): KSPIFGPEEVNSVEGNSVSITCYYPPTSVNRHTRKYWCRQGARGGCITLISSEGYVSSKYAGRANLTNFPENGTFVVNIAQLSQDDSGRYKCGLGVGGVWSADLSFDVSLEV
T6 sequence (P01833 other isoform, or with tags, fused parts or gaps limits assumed): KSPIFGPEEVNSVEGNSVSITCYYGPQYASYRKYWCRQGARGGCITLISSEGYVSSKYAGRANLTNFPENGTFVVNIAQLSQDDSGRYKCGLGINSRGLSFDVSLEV
T8 sequence (P01833 other isoform, or with tags, fused parts or gaps limits assumed): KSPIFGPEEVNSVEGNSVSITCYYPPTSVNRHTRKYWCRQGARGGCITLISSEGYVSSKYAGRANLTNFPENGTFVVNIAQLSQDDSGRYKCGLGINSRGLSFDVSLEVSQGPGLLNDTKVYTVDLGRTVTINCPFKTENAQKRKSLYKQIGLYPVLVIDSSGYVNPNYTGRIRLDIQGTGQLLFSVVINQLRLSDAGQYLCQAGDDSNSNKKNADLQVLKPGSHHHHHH
T7 sequence (P01833 other isoform, or with tags, fused parts or gaps limits assumed): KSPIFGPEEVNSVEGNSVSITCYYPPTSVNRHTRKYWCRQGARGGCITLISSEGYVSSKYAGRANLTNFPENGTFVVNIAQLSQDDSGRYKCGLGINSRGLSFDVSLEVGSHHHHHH

Row | Binder | Kd [1] [nM] | Fold change in KD [2] [fold] | Fold change in KD [3] [fold] | Fold change in KD [4] [fold] | Fold change in KD [5] [fold] | Fold change in KD [6] [fold] | Kd [7] [nM] | EC50 [8] [nM] | Transcytosis (Fold Incr.) [9] [fold] | binding result (hpIgR_D2-D3) | EC50 [10] [nM] | Kd [11] [nM] | Kd [12] [nM] | increase in their apical concentration relative to control VHH (MDCK-hpIgR monolayers) [13] [fold] | binding result [14] | Kd [15] [nM] | Kd [16] [nM] | Kd [17] [nM]
1 | VHH3-linker-mono-Fc protein (Fc fusion, made in CHO cells; also called VHH3-mono-Fc; hpIgR_021) QLQLVESGGGLVQPGGSLRLSCAASGSIFSINVMGWYRQAPGKQRELVARINGGGITHYAESVKGRFTISRDNAKNTVYLQMNSLKPEDTAAYYCKADVFGSSGYVETYWGQGTQVTVSSEPKTPKPQPQPQLQPQPNPTTESKSPKSPAPELLGGPSVFLFPPKPKDTLMISRTPEVTCVVVDVSHEDPEVKFNWYVDGVEVHNAKTKPREEQYNSTYRVVSVLTVLHQDWLNGKEYKCKVSNKALPAPIEKTISKAKGQPREPQVYTKPPSREEMTKNQVSLSCLVKGFYPSDIAVEWESNGQPENNYKTTVPVLDSDGSFRLASYLTVDKSRWQQGNVFSCSVMHEALHNHYTQKSLSLSPGK | 5 | 0.8 | 7.7 | 0.8 | 1 | 1.3 | 10 | 28.6 | 2.6 | no binding (tested: 100 ug/ml (single concentration)) | 6.4 | 40 | – | – | – | – | – | –
2 | VHH2-linker-mono-Fc protein (Fc fusion, also called VHH2-mono-Fc; mpIgR_338) EVQVVESGGGLVQAGGSLKLACAAPGLTFSSYRMGWFRQAPGQEREFVAAIDWNGRGTYYRYYADSVKGRSTISRDNAKNTVYLQMNSLKPEDTAVYYCAATTVLTDPRVLNEYATWGQGTQVTVSSEPKTPKPQPQPQLQPQPNPTTESKSPKSPAPELLGGPSVFLFPPKPKDTLMISRTPEVTCVVVDVSHEDPEVKFNWYVDGVEVHNAKTKPREEQYNSTYRVVSVLTVLHQDWLNGKEYKCKVSNKALPAPIEKTISKAKGQPREPQVYTKPPSREEMTKNQVSLSCLVKGFYPSDIAVEWESNGQPENNYKTTVPVLDSDGSFRLASYLTVDKSRWQQGNVFSCSVMHEALHNHYTQKSLSLSPGK | – | 0.7 | 1 | 0.7 | 1 | 1 | – | 4 | 34.2 | no binding (tested: 100 ug/ml (single concentration)) | 6.3 | – | 22 | > 10 | no binding (tested: 100 ug/ml (single concentration)) | 22 | 1 | 21
